Assay results reported in PMC3551606.
Like-named read-outs stand apart in the source and are kept apart here.

Experiments:
[1] = molecular target: Drosophila cathepsin B (Drosophila)
[2] = molecular target: Drosophila cathepsin B (Drosophila); remark: listed apart in the source
[3] = molecular target: Drosophila cathepsin B (Drosophila); remark: listed apart in the source

| CTSB activity % (residual activity on ZFR-AMC with 3 µM crammer variant, 75 nM CTSB, pH 5.0, 20°C) [1] | CTSB activity % (residual activity on ZFR-AMC with 3 µM crammer variant, 75 nM CTSB, pH 5.0, 20°C) [2] | reduction of CTSB activity at 3 µM crammer variant (text's number; differs from 100 minus the table's cell) [3] | Substance |
| --- | --- | --- | --- |
| 87.8% | – | – | crammer W9A (natural protein) |
| 14.7% | – | – | Drosophila melanogaster crammer, wild type (natural protein) |
| – | 89% | – | crammer R28A (natural protein) |
| 67.6% | – | – | crammer Y32A (natural protein) |
| – | 64% | – | crammer R29A (natural protein) |
| 34.6% | – | 64% | crammer F16A (natural protein) |
| – | 77.7% | – | crammer E8A (natural protein) |
| – | 29% | – | crammer K36A (natural protein) |
| 47.8% | – | – | crammer Y20A (natural protein) |
| 63% | – | – | crammer Y12A (natural protein) |
| – | 19% | – | crammer E24A (natural protein) |
| 85.2% | – | – | crammer W53A (natural protein) |
| – | 21.1% | – | crammer D6A (natural protein) |
| 41% | – | – | crammer F46A (natural protein) |
| – | 54.1% | – | crammer E67A (natural protein) |
